Laboratory results taken from the RNAGym collection of RNA variant scans (doi:10.1073/pnas.2313332121).

B1: TPR t1 (parent)
chain: GACCAAUCUGCCCUCAGAGCUCGAGAACAUCUUCGGAUGCAGAGGAGGCAGGCUUCGGUGGCGCGAUAGCGCCAACGUCCUCAACCUCCAAUGCAUCCCACCACAUGAUGAUGCCUGAAGAGCCUUGGUUUUUUG

Variants of: B1
Test: polymerase ribozyme fitness, log enrichment relative to wild type (log ratio); higher = more active; in vitro selection for triplet polymerase activity
Outline: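 Fitness compares each genotype's enrichment to that of the wild type on a logarithmic scale, averaging replicates with inverse-variance weights. The logarithm is base 2. Enrichment came from Illumina sequencing of input and output libraries after one triplicate round of in vitro selection, which included frozen incubation at −7 °C, of PCR-built, transcribed mutant libraries of each subunit of a heterodimeric triplet polymerase ribozyme. Only genotypes with ≥10 input reads and ≥1 read per output were kept.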
In the case of C72U C124U G135A, the “polymerase ribozyme fitness (log ratio)” value is reported as 2.03.
In the case of C72U C94G G110C, the “polymerase ribozyme fitness (log ratio)” value is reported as -5.81.
In the case of C72G U125A G128A U133A, the “polymerase ribozyme fitness (log ratio)” value is reported as -3.47.
For C72U A118U G120U, the “polymerase ribozyme fitness (log ratio)” value was -0.322.
For C73U C104A, the “polymerase ribozyme fitness (log ratio)” value was -1.22.
With C73A C88A G117U the “polymerase ribozyme fitness (log ratio)” value was -4.07.
For C73A C79G U112A, the “polymerase ribozyme fitness (log ratio)” value was -0.66.
In the case of C72U A83C C114U, the “polymerase ribozyme fitness (log ratio)” value is reported as -1.96.
With C73U C123G C124G the “polymerase ribozyme fitness (log ratio)” value was 2.14.
With C73G C82A U92A the “polymerase ribozyme fitness (log ratio)” value was -4.06.
With C72U C104A the “polymerase ribozyme fitness (log ratio)” value was -2.05.
For C73G A121G, the “polymerase ribozyme fitness (log ratio)” value was 1.16.
With A74C A100C the “polymerase ribozyme fitness (log ratio)” value was -1.06.
In the case of C73U C101U G122A, the “polymerase ribozyme fitness (log ratio)” value is reported as -0.395.
For C72G U81A, the “polymerase ribozyme fitness (log ratio)” value was -2.98.
With C72G U81C the “polymerase ribozyme fitness (log ratio)” value was -1.12.
In the case of C73G C89G U131A, the “polymerase ribozyme fitness (log ratio)” value is reported as -2.56.
In the case of C72U A100U A108G, the “polymerase ribozyme fitness (log ratio)” value is reported as -1.87.
For C72U A84C, the “polymerase ribozyme fitness (log ratio)” value was 0.0877.
With C72U A84G the “polymerase ribozyme fitness (log ratio)” value was -1.74.
In the case of C73U A119G C123G, the “polymerase ribozyme fitness (log ratio)” value is reported as 2.02.
With C73G A74U C89U the “polymerase ribozyme fitness (log ratio)” value was -2.48.
With C72U G110A U130A the “polymerase ribozyme fitness (log ratio)” value was -1.72.
In the case of C72U G127C U132C, the “polymerase ribozyme fitness (log ratio)” value is reported as -1.97.
With C73U C79U U87A the “polymerase ribozyme fitness (log ratio)” value was -0.627.
For C72U A121C, the “polymerase ribozyme fitness (log ratio)” value was 1.6.
In the case of C72U A121U, the “polymerase ribozyme fitness (log ratio)” value is reported as 1.5.
With C72U A121G the “polymerase ribozyme fitness (log ratio)” value was 0.744.
With C72U G113U G120U U130C the “polymerase ribozyme fitness (log ratio)” value was -3.5.
For C73A C99U A118G, the “polymerase ribozyme fitness (log ratio)” value was -3.
With C72U C102A G128A the “polymerase ribozyme fitness (log ratio)” value was -4.14.
In the case of C72U C94G C101A, the “polymerase ribozyme fitness (log ratio)” value is reported as -2.57.
For C72U C80U, the “polymerase ribozyme fitness (log ratio)” value was -1.08.
With C72U C80A the “polymerase ribozyme fitness (log ratio)” value was -5.24.
For C72U U78C C86G G127C, the “polymerase ribozyme fitness (log ratio)” value was -2.25.
With C73G G120U the “polymerase ribozyme fitness (log ratio)” value was -0.78.
For C72U A83U A90G C114G, the “polymerase ribozyme fitness (log ratio)” value was -1.45.
In the case of C72U C79U C82A, the “polymerase ribozyme fitness (log ratio)” value is reported as -0.964.
With C73G A108C A118U C123G the “polymerase ribozyme fitness (log ratio)” value was -4.86.
With C72U C114A the “polymerase ribozyme fitness (log ratio)” value was -1.67.
For C73A C94U, the “polymerase ribozyme fitness (log ratio)” value was 0.44.
For C72U C98U U131C, the “polymerase ribozyme fitness (log ratio)” value was -1.05.
With C72U C123A the “polymerase ribozyme fitness (log ratio)” value was 0.21.
For C72G U112C, the “polymerase ribozyme fitness (log ratio)” value was 1.51.
In the case of C72G U112G, the “polymerase ribozyme fitness (log ratio)” value is reported as -0.196.
In the case of C72G U112A, the “polymerase ribozyme fitness (log ratio)” value is reported as 0.104.
For C72U C85A, the “polymerase ribozyme fitness (log ratio)” value was -1.82.
For C73U G128U, the “polymerase ribozyme fitness (log ratio)” value was -1.62.
For C72U C97G, the “polymerase ribozyme fitness (log ratio)” value was -4.65.
In the case of C72U C97A, the “polymerase ribozyme fitness (log ratio)” value is reported as -5.06.
For C73U C89A G120U, the “polymerase ribozyme fitness (log ratio)” value was -2.25.
In the case of C72U U78C C82G C101A A121C, the “polymerase ribozyme fitness (log ratio)” value is reported as -0.0659.
For C73G U112A, the “polymerase ribozyme fitness (log ratio)” value was -0.766.
For C73U U116A, the “polymerase ribozyme fitness (log ratio)” value was -3.52.
With C73G C82A A90U C123G the “polymerase ribozyme fitness (log ratio)” value was -0.559.
For A74G, the “polymerase ribozyme fitness (log ratio)” value was 0.0609.
With A74C the “polymerase ribozyme fitness (log ratio)” value was -0.272.
With C72U C88U the “polymerase ribozyme fitness (log ratio)” value was 0.0321.
For C72U C88G, the “polymerase ribozyme fitness (log ratio)” value was -0.779.
With C72U C88A the “polymerase ribozyme fitness (log ratio)” value was 0.024.
With C72U A105U U131C U132A the “polymerase ribozyme fitness (log ratio)” value was -2.36.
With C73G A111C the “polymerase ribozyme fitness (log ratio)” value was -0.327.
In the case of C73U G110A G117A C124U, the “polymerase ribozyme fitness (log ratio)” value is reported as -4.95.
With C73U C94A C104U G117U the “polymerase ribozyme fitness (log ratio)” value was -3.3.
With C73U A108U the “polymerase ribozyme fitness (log ratio)” value was -5.75.
With A74C C89A U96A C115A the “polymerase ribozyme fitness (log ratio)” value was -3.51.
With A74C C97U G120A G122A the “polymerase ribozyme fitness (log ratio)” value was -1.46.
For C72U C101A C115A C123A, the “polymerase ribozyme fitness (log ratio)” value was -3.06.
With C73A G110C U125A U129A the “polymerase ribozyme fitness (log ratio)” value was -6.92.
With C73U C80G A118U the “polymerase ribozyme fitness (log ratio)” value was -4.47.
For C73A C80G, the “polymerase ribozyme fitness (log ratio)” value was -5.69.
With C73G U109A C114U C123A U130G U132A the “polymerase ribozyme fitness (log ratio)” value was -4.38.
For C73U U92A G93A, the “polymerase ribozyme fitness (log ratio)” value was -4.03.
For C73U C102A U131A, the “polymerase ribozyme fitness (log ratio)” value was -1.19.
For A74G A83C C114A C123G C124G, the “polymerase ribozyme fitness (log ratio)” value was -0.429.
With C72U G93A C115U the “polymerase ribozyme fitness (log ratio)” value was -1.52.
For C73U U130C, the “polymerase ribozyme fitness (log ratio)” value was 0.504.
For A74C G117U, the “polymerase ribozyme fitness (log ratio)” value was -2.81.
With C72U A91G the “polymerase ribozyme fitness (log ratio)” value was -1.21.
In the case of C73U C97A, the “polymerase ribozyme fitness (log ratio)” value is reported as -3.58.
For C72U G127U, the “polymerase ribozyme fitness (log ratio)” value was -1.84.
For C72U G127C, the “polymerase ribozyme fitness (log ratio)” value was -1.75.
With C73A U112A A121U U125A the “polymerase ribozyme fitness (log ratio)” value was 1.73.
